This passage reports EC50 results from US20250197491A1 (published 2025).

The EC50 is the concentration needed to bring the measured effect to its halfway point. Low readings indicate a more potent agent, high ones a less potent agent.

B1: Antibody 5 (antibody, V domains shown)
VH: QVQLVESGGGLVKPGGSLRLSCAASGFTFSDYYMTWIRQAPGKGLEWVSYISISGITRYYADSVKGRFTISRDNAKNSLYLQMNSLRAEDTAVYYCARDQTGYFDYWGQGTLVTVSS
VL: DIVMTQSPATLSVSPGEKTTLSCRASQSFSSNLAWYQQKPGQAPRLLIYGASTRATGIPARFSGSGSGTEFTLTISSLQSEDFAVYYCQQYINWPHTFGQGTKVEIK
B2: Antibody 1 (antibody, V domains shown)
VH: QVQLVESGGGLVKPGGSLRLSCAASGFTFSDYYMSWIRQAPGKGLEWVSYISSSGSIKKYADSVKGRFTISRDNAKNSLYLQMNSLRGEDTAVYYCARTNWHFDYWGQGTLVTVSS
VL: EIVLTQSPGTLSLSPGERATLSCRASQSVSSSYLAWYQQKPGQAPRLLIFGASTRATGIPDRFSGSGSGTDFTLTISRLEPEDVAVYYCQQYYSTPFTFGPGTKVDIK
B3: Antibody 4 (antibody, V domains shown)
VH: QVQLVQSGAEVKKPGASVKVSCKASGYTFTSYGISWVRQAPGQGLEWMGWISAYNGNTNYAQKLQGRVTMTTDTSTSTAYMELRSLRSDDTAVYYCARSYSGSYWWFDPWGQGTLVTVSS
VL: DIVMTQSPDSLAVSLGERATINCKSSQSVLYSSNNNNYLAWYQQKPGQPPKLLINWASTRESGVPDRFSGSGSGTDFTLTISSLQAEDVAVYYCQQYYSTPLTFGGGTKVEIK
B4: Antibody 3 (antibody, V domains shown)
VH: QVQLVQSGAEVKKPGASVKVSCKASGYTFTSYGISWVRQAPGQGLEWMGWISAYNGNTNYAQKLQGRVTMTTDTSTSTAYMELRSLRSDDTAVYYCARSYSGSHWWFDPWGQGTLVTVSS
VL: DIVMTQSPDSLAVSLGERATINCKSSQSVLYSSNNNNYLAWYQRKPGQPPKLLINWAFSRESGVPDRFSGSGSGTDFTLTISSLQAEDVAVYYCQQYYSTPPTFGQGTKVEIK
B5: Antibody 2 (antibody, V domains shown)
VH: QVQLVESGGDLVKPGGSLRLSCAASGFTFRDYYMSWIRQAPGKGLEWVSYISPSGSTIFYADSVKGRFTISRDNAKNSLYLQMNSLRAEDTAVYYCAKDRVRLFDYWGQGTLVTVSS
VL: EIVLTQSPATLSLSPGERATLSCRASQSVSSSYLAWYQQKPGQAPRLLIYGASTRATGIPARFSGSGSGTDFTLTISRLEPEDFAVYYCQQRSNWPITFGQGTRLEIK

The target of the experiment is Human full length LILRB1 (UniProt Q8NHL6 24-650). Kind of experiment: flow cytometry, HEK293 cells overexpressing LILRB1. For orientation: A flow cytometer gives signals particle by particle.
Sequence of Human full length LILRB1 (Q8NHL6 24-650): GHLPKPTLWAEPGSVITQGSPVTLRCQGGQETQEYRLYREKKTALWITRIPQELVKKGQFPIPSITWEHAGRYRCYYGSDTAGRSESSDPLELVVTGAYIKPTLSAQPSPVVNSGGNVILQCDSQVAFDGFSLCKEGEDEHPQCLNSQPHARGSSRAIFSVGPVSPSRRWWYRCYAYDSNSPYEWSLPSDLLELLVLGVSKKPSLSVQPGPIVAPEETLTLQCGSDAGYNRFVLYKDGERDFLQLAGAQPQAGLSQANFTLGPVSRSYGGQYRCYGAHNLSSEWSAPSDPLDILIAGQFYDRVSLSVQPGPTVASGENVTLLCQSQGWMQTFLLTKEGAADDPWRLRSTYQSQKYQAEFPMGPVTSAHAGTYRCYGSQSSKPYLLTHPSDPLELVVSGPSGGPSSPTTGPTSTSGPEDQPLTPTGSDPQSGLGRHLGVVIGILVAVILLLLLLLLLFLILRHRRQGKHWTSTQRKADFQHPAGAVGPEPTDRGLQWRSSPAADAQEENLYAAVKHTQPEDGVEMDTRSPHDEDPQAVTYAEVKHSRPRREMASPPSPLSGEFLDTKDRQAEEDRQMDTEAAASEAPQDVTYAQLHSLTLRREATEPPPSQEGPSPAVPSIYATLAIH
The molecule B1 had an EC50 of 2.24 nM.

Take B2: the EC50 came to 0.37 nM. Compared with the last molecule, the EC50 is about 6.1-fold lower.

In turn, B3 showed an EC50 of 1.21 nM.

B4 gave a half-maximal effective concentration (EC50) of 1.57 nM. Under B5 stands 0.52 nM.
